# Source: US10479836B2, “Method for treating pulmonary hypertension with interleukin-5 receptor antibody” (University of Toyama, priority 2015, dated 2019)
# Entries after “also recorded” stand apart in the source; their conditions may differ.
# B1: H7-2: core fucose-deficient H7 chimeric antibody, human IgG1, with Cys at VL position 87 replaced with Ser (antibody, V domains shown)
# VH: EVQLQQSGAELGKPGTSVKLSCKVSGYNIKNTYIHWVNQRPGKGLEWIGRIDPANGNPIYAEKFKNKATLTADTSSNTAYMQLSQLKSDDTAIYFCAMHRGHSMGPGPYVMDAWGQGASVTVSS
# VL: DIQMTQSPASLSASLGETVTIECRTSEDIYNGLAWYQQKPGKSPQLLIYNANSLHTGVPSRFSGSGSGTQYSLKINSLQSEDVASYSCQQYSNYPFTFGSGTKLEIK
# B2: H7-4: N-linked sugar chain-deficient H7 chimeric antibody, human IgG1 (N297A), with Cys at VL position 87 replaced with Ser (antibody, V domains shown)
# VH: B1 VH
# VL: B1 VL
# B3: KM8808: core fucose-deficient anti-dinitrophenol (DNP) rat/human chimeric antibody, isotype control (antibody, V domains shown)
# VH: EVQLQESGPGLVKPSQSLSLTCSVTGYSITSGYWNWIRKFPGNKMEWIGYISYSGSTYYNPSLKSRISITRDTSKNQFFLQLNSVTTEDTATYYCARWGVRHYFDYWGQGVMATVSS
# VL: DVVMTQTPVSLPVSLGGQASISCRSSQSLANSYGNTYLSWYLQKPGQSPQLLIYRVSNTFSGVPDRFSGSGSGTDFTLKISRVEPEDLGDYYCLQGTHQPYTFGAGTKLELK
# B4: KM6161: N-linked sugar chain-deficient anti-DNP rat/human chimeric antibody containing N297A substitution, isotype control (antibody, V domains shown)
# VH: B3 VH
# VL: B3 VL
# Tested on: eosinophils (CD45-positive, Gr1-negative, Siglec-F-positive cells)
# Assay: IL-33-induced increase of lung eosinophils, FCM of lung cell suspension
# Format: in vivo, mouse
# Details: IL-5+/+ mice, 100 μg antibody i.p. five times; FCM day 21; FIG. 16
# Procedure: (§1) In an experimental system similar to that of Example 3, in order to confirm the inhibitory effects of anti-IL-5R antibodies and anti-IL-5 neutralizing antibodies on vascular wall thickening, 100 μg of the H7 (CS) hIgG1 (DF) (H7-2) antibody, the H7 (CS) hIgG1 (N297A) (H7-4) antibody, an anti-IL-5 antibody (ligand-neutralizing antibody, clone name: TRFK5), the anti-DNP antibody KM8808, the anti-DNP antibody KM6161, or rat IgG (clone name: HRPN) was intraperitoneally administered to each IL-5^+/+ mouse a total of five times (3 consecutive days (three times) from two days before the first rIL-33 administration day (day 0), once on the second rIL-33 administration day (day 7), and once on the third rIL-33 administration day (day 14)) (FIG. 15). Then, on day 21, lung tissues were resected and evaluated by FCM and immunofluorescent staining.
# In the FCM, 1×10^6 cells in the lung cell suspension were stained with a PE-Cy7-conjugated anti-CD45 antibody (30-F11), an APC-conjugated anti-Gr1 antibody (RB6-8C5), and a PE-conjugated anti-Siglec-F antibody (E50-2440) (all manufactured by BD Biosciences). CD45-positive, Gr1-negative, and Siglec-F-positive cells were regarded as eosinophils, and the influence of antibody administration was observed.
row,Molecule,inhibition of IL-33-induced increase in the number of eosinophils
1,B1,inhibited almost completely; also recorded: superior in eosinophil growth-inhibiting function
2,B2,at a degree poorer than that of H7-2
3,B3,not inhibited
4,B4,not inhibited

# Same assay, conditions: IL-5+/+ mice, PBS instead of IL-33; 100 μg antibody i.p. five times; lung cells day 21, FCM
row,Molecule,"abundance ratio of eosinophils, in absence of IL-33 (PBS)"
1,B1,0.24%
2,B2,0.17%
3,B3,1.19%
4,B4,0.92%

# Same assay, conditions: IL-5+/+ mice, rIL-33 days 0, 7, 14; 100 μg antibody i.p. five times; lung cells day 21, FCM
row,Molecule,"abundance ratio of eosinophils, in presence of IL-33"
1,B1,1.58%
2,B2,29.1%
3,B3,48.3%
4,B4,52.4%

# Tested on: IL-33-induced vascular wall thickening (SMA-positive cells)
# Assay: IL-33-induced vascular wall thickening, immunofluorescent staining of lung tissue
# Format: in vivo, mouse
# Details: IL-5+/+ mice, 100 μg antibody i.p. five times; lung tissue day 21
# Procedure: as §1
# In the immunofluorescent staining, the tissues were sliced into 30 μm, and slides were prepared and then stained with an Alexa 488-conjugated anti-SMA antibody (1A4) (manufactured by Abcam plc) and an Alexa 647-conjugated anti-Siglec-F antibody (E50-2440). The nuclei of the cells were stained with Hoechst 33342 (manufactured by Life Technologies Corp.). Here, the degree of the growth of SMA-positive cells (primary media-constituting cells) was observed.
row,Molecule,inhibition of IL-33-induced vascular wall thickening (immunofluorescent staining)
1,B1,inhibited most strongly; also recorded: vascular wall thickening inhibitory effect superior to H7-4 or the IL-5 ligand-neutralizing antibody
2,B2,at a degree poorer than that of H7-2
3,B3,not observed
4,B4,not observed

# Tested on: Y16 cells
# Assay: IL-5 signal inhibition: rIL-5-dependent Y16 growth inhibition (WST-1)
# Format: cell-based, mouse
# Details: rIL-5 5 units/mL, 24 hours
# Procedure: Whether or not the various recombinant chimeric antibodies prepared in Example 8 would have the function of inhibiting IL-5 signals was studied by using Y16 growth inhibition as an index. 2×10^3 Y16 cells were cultured for 24 hours in the presence or absence of rIL-5 (5 units/mL) after addition of the Cys substitution-containing core fucose-unlinked H7 recombinant chimeric antibody H7 (CS) hIgG1 (DF) (H7-2), the N-linked sugar chain-deficient H7 recombinant chimeric antibody H7 (CS) hIgG1 (N297A) (H7-4), and the anti-DNP antibodies KM8808 and KM6161 at a concentration of 0.01, 0.1, 1, or 10 μg/mL. 24 hours later, these antibodies were evaluated for their ability to inhibit growth using Premix WST-1 Cell Proliferation Assay System (manufactured by Takara Bio Inc.). The culture time after addition of the reagent of the cell growth assay kit was set to 1 hour.
row,Molecule,"Y16 growth inhibiting ability, H7-2 and H7-4 compared"
1,B1,equivalent inhibiting ability
2,B2,equivalent inhibiting ability

# Same assay, conditions: rIL-5 5 units/mL, 24 hours, antibody 0.01-10 μg/mL; FIG. 14
row,Molecule,inhibition of Y16 cell growth (IL-5 signal-inhibiting function)
1,B1,inhibited the growth of the Y16 cells in an antibody concentration-dependent manner
2,B2,inhibited the growth of the Y16 cells in an antibody concentration-dependent manner
3,B3,not observed
4,B4,not observed

# Tested on: mouse IL-5Rα-expressing cell Y16
# Assay: Antigen binding activity of chimeric antibodies on Y16 cells by FCM
# Format: cell-based
# Details: FIG. 12
# Procedure: The chimeric antibodies prepared in Example 8 were evaluated for their antigen binding activity using a mouse-derived cell line Y16 expressing IL-5R. The Y16 cells were washed with SM (staining medium containing 2% FCS, 0.05% NaN3, and 1 mM EDTA in PBS). Then, Mouse BD Fc Block (manufactured by Becton, Dickinson and Company) was added thereto at a concentration of 5 μg/mL, and the mixture was left standing at 4° C. for 30 min. The cells were inoculated at a cell number of 1×10^5 cells/well to a 96-well U-bottom plate, and each chimeric antibody adjusted to a final concentration of 10000, 2500, 625, 156, 39, 10, 2.4, or 0.6 ng/mL was added thereto, followed by reaction at 4° C. for 60 min. The rat/human chimeric control antibodies used were rtDNP-1 hIgG1 (DF) antibody (KM8808) and rtDNP-1 hIgG1 (N297A) antibody (KM6161). The nucleotide sequences and amino acid sequences of the variable regions of each isotype control antibody are shown in SEQ ID NOs: 29 to 34. After washing of the cells with SM, Goat F(ab′)2 Anti-Human IgG PE (γ chain specific) (manufactured by Southern Biotech) diluted 500-fold with SM was added thereto, followed by reaction at 4° C. for 60 min. After washing of the cells with SM, the cells were resuspended in 50 μL of SM. Fluorescence intensity was measured by FCM (flow cytometer FACS Canto II (manufactured by Becton, Dickinson and Company)). The data was analyzed using FlowJo 7.65 (manufactured by Tomy Digital Biology Co., Ltd.) to calculate a Geomean value at each concentration.
row,Molecule,"binding ability to Y16 cells, H7-1 and H7-2 compared"
1,B1,slight rise in binding ability

# Tested on: Y16 cells
# Assay: ADCC activity against Y16 cells with human PBMC effector cells (LDH release)
# Format: cell-based, mouse
# Details: 4 hrs, 0.0001-1000 ng/mL (control antibodies 1000 ng/mL), FIG. 13
# Procedure: The H7 recombinant chimeric antibodies prepared in Example 8 were evaluated for their ADCC activity against Y16 cells using frozen human peripheral blood mononuclear cells (PBMCs) (manufactured by AllCells) as effector cells. The frozen human PBMCs were shake-cultured (37° C., 5% CO2, overnight) in RPMI1640 medium containing 5% FBS. The Y16 cells (target cells) and the human PBMCs (effector cells) were washed with ADCC assay medium (RPIM1640 containing 5% dialyzed FBS) and adjusted to cell densities of 2×10^5 cells/mL and 3×10^6 cells/mL, respectively. The cells were washed twice with a medium and then suspended into cell densities of 4×10^5 cells/mL. Each chimeric antibody adjusted to a final concentration of 0.0001, 0.001, 0.01, 0.1, 1, 10, 100, or 1000 ng/mL, the target cells (2×10^4 cells/well), and the effector cells (5×10^5 cells/well) were added in this order at 50 μL/well to a 96-well U-bottom plate. The control antibodies used were the rtDNP-1 hIgG1 (DF) antibody (KM8808) and the rtDNP-1 hIgG1 (N297A) antibody (KM6161) of Example 10 adjusted to a final concentration of 1000 ng/mL. The plate was centrifuged (500 rpm, 5 min) and then left standing in an incubator (37° C., 5% CO2, 4 hrs). The plate was centrifuged (1500 rpm, 5 min) to recover a supernatant at 50 μL/well into a 96-well Flat-bottom plate (manufactured by Sumitomo Bakelite Co., Ltd.). Lactate dehydrogenase (LDH) activity in the supernatant was detected using CytoTox 96 Non-Radioactive Cytotoxicity Assay (manufactured by Promega Corp.). Absorbance at 490 nm was measured using a plate reader SPECTRA MAX 340 PC384 (manufactured by Molecular Devices, LLC). The ADCC activity (%) was calculated according to the following equation using background-corrected measurement values. Cytotoxicity=[[Absorbance of the sample]−[Absorbance derived from spontaneous release from the target cells and the effector cells]]/[[Absorbance derived from total release from the target cells]−[Absorbance derived from spontaneous release from the target cells]]
row,Molecule,ADCC activity against Y16 cells
1,B1,exhibited antibody concentration-dependent ADCC activity
2,B2,none
3,B3,none
4,B4,none
